Measured values: patent US20140315251A1 (ZOETIS SERVICES, published 2014)

How the values were obtained:
pET101D-lacZ protein = target: T1, pET101D-lacZ protein (UniProt P00722 1-1024 = β-galactosidase, limits assumed); assay: Western blot of crude E. coli lysates
T1 construct: Control lane on the truncation blots; also called beta-galactosidase (lacZ)
Method: (§1) It was observed that the full length IL-31 protein was expressed very poorly. […] Antibodies 11E12 and 34D03 all bound to the −20N protein. Therefore, further work was carried out using this −20 N construct. Constructs representing C-terminal truncations at positions 20-122 (MW 15.3 with his tag), 20-100 (MW 12.9 with his tag), and 20-80 (MW 10.4 with his tag), were made to assess mAb binding to these areas on the IL-31 protein. The amino acid and nucleotide sequences corresponding to the 20-122 construct are SEQ ID NOs: 63 and 64, respectively. The amino acid and nucleotide sequences corresponding to the 20-100 construct are SEQ ID NOs: 65 and 66, respectively. The amino acid and nucleotide sequences corresponding to the 20-80 construct are SEQ ID NOs: 67 and 68, respectively. […] This region corresponds to amino acid Nos. between amino acid residues 102 and 122 of the canine IL-31 full-length protein sequence of SEQ ID NO: 32. […] In addition, the pET101D-lacZ protein was used as a control to confirm the lack of non-specific binding of mAbs to host proteins.

[1] = target: T2, feline IL-31 full-length construct for E. coli expression (feline); assay: Western blot of purified IL-31 proteins
T2 construct: Purified from E. coli under denaturing conditions and dialysed; also called feline IL-31 protein
T2 chain: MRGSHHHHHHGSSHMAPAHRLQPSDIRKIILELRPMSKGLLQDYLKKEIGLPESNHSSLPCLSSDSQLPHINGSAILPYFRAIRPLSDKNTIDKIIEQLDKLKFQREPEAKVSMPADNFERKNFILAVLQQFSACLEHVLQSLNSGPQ

[2] = target: T2, feline IL-31 full-length construct for …; assay: Western blot under reducing conditions, purified protein from mammalian and E. coli sources
[3] = target: T3, canine IL-31 with double alanine substitution (D82A, I85A) (canine); assay: Western blot of E. coli lysates
T3 construct: The -20N backbone is stated for the alanine scan and -20N was the control on this blot; also called double mutation
From the text: (§2) To examine the impact of multiple mutations in the region of IL-31 important for binding to the 11E12 and 34D03 antibodies, expression plasmids were constructed with double (D82A, […]) and triple (I81A, D82A, I85A) alanine substitutions. E. coli lysates expressing canine IL-31 with these double and triple mutations in addition to the −20N control were blotted with 11E12 and 34D03 antibodies (FIG. 16). It is apparent that these three amino acids on canine IL-31 are involved with recognition of 11E12 and 34D03 as complete abrogation of binding is observed when these sites are changed to alanine. These three amino acids correspond to amino acid residues 103, 104 and 107 of the canine IL-31 full-length protein sequence of SEQ ID NO: 32.

[4] = target: T4, canine IL-31 with triple alanine substitution (I81A, D82A, I85A) (canine); assay: Western blot of E. coli lysates
T4 construct: Positions count on the full-length E. coli construct; also called triple mutation
From the text: as §2

[5] = target: T5, canine IL-31 -20N construct (canine); assay: Western blot of crude E. coli lysates
T5 construct: Crude E. coli lysate on Western blot; also called N-terminal truncation -20N; -20N protein
Method: as §1

[6] = target: T6, canine IL-31 -40N construct (canine); assay: Western blot of crude E. coli lysates
T6 construct: Crude E. coli lysate on Western blot; also called N-terminal truncation -40N
Method: as §1

[7] = target: T7, canine IL-31 -60N construct (canine); assay: Western blot of crude E. coli lysates
T7 construct: Crude E. coli lysate on Western blot; also called N-terminal truncation -60N
Method: as §1

[8] = target: T8, canine IL-31 20-122 construct (canine); assay: Western blot of crude E. coli lysates
T8 construct: also called C-terminal truncation at positions 20-122
T8 chain: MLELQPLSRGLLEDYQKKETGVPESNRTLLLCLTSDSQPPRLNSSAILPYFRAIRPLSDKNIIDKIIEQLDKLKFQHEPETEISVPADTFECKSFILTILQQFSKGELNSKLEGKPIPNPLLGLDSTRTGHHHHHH
Method: as §1

[9] = target: T9, canine IL-31 20-100 construct (canine); assay: Western blot of crude E. coli lysates
T9 construct: The range counts on the full-length E. coli construct; also called C-terminal truncation at positions 20-100
Method: as §1

[10] = target: T10, canine IL-31 20-80 construct (canine); assay: Western blot of crude E. coli lysates
T10 construct: The range counts on the full-length E. coli construct; also called C-terminal truncation at positions 20-80
T10 chain: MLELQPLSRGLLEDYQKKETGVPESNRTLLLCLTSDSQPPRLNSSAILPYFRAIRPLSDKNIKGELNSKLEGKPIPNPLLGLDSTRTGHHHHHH
Method: as §1

[11] = target: T11, canine IL-31 full-length construct for E. coli expression (canine); assay: Western blot of purified IL-31 proteins
T11 construct: also called canine IL-31 (E. coli)
T11 chain: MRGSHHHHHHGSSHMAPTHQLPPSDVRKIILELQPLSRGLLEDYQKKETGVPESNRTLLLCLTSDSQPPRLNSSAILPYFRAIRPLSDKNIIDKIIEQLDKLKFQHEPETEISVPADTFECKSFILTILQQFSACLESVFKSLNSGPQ

T1 sequence (P00722 whole entry, the tested form may be a part): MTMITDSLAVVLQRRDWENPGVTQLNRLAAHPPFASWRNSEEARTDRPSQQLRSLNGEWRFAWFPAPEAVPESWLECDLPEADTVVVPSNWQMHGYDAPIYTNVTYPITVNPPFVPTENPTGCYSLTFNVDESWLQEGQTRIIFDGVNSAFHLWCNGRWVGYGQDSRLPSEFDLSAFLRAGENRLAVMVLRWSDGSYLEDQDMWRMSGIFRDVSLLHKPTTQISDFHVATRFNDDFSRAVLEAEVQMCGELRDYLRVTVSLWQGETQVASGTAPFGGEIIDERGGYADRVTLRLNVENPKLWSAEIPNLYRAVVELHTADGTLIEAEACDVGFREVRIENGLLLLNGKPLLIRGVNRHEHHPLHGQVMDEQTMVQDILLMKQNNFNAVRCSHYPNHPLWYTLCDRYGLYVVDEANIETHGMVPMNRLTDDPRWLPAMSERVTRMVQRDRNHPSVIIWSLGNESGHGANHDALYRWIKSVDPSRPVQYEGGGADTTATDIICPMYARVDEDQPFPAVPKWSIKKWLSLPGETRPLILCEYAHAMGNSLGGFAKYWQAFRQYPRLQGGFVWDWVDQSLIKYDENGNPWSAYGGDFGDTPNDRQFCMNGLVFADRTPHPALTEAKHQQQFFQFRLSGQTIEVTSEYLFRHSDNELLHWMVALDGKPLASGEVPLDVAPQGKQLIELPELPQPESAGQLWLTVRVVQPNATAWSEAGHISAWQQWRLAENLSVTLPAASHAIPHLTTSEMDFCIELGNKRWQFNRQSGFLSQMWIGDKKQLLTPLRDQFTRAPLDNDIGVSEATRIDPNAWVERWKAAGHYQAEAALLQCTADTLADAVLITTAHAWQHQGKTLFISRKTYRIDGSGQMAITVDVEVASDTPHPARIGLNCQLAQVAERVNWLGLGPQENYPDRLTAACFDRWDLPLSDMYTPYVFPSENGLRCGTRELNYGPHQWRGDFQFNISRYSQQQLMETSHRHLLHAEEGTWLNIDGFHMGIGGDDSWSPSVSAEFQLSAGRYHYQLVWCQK

B1: Mouse 11E12 (antibody, V domains shown)
VH: QVQLQQSGAELVKPGASVKLSCKASGYTFKYYDINWVRQRPEQGLEWIGWIFPGDGGTKYNETFKGKATLTTDKSSSTAYMQLSRLTSEDSAVYFCARGGTSVIRDAMDYWGQGTSVTVSS
VL: DIVLTQSPASLAVSLGQRATISCRASESVDNYGISFMHWYQQKPGQPPKLLIYRASNLESGIPARFSGSGSRTDFTLTINPVETDDVATYYCQQSNKDPLTFGAGTKLELK
notes: Mouse hybridoma monoclonal; also called mAb 11E12; MU-11E12
binding result (pET101D-lacZ protein): no binding
binding result [1]: binds

B2: Felinized 34D03 (antibody, V domains shown)
VH: DVQLVESGGDLVKPGGSLRLTCVASGFTYSNYGMSWVRQAPGKGLQWVATISYGGSYTYYPDNIKGRFTISRDNAKNTLYLQMNSLKTEDTATYYCVRGYGYDTMDYWGQGTLVTVSS
VL: EIQMTQSPSSLSASPGDRVTITCKASQSVSFAGTGLMHWYQQKPGKVPKLLIYRASNLEAGVPSRFSGSGSGTDFTLTISSLEPEDAATYYCQQSREYPWTFGQGTKLEIKR
notes: Produced from HEK cells; also called feline 34D03; felinized antibody 34D03
binding result [2]: binds

B3: Mouse 34D03 (antibody, V domains shown)
VH: EVQLVESGGDLVKPGGSLKLSCAASGFSFSNYGMSWVRQTPDKRLEWVATISYGGSYTYYPDNIKGRFTISRDNAKNTLYLQMSSLKSEDTAMYYCVRGYGYDTMDYWGQGTSVTVSS
VL: DILLTQSPASLAVSLGQRAIISCKASQSVSFAGTGLMHWYQQKPGQQPKLLIYRASNLEAGVPTRFSGSGSRTDFTLNIHPVEEEDAATYFCQQSREYPWTFGGGTKLEIK
notes: Mouse hybridoma monoclonal; also called mAb 34D03; MU-34D03
binding result [3]: no binding
binding result [4]: no binding
binding result [5]: binds
binding result [6]: binds
binding result [7]: binds
binding result [8]: binds
binding result [9]: binds
binding result [10]: no binding
binding result (pET101D-lacZ protein): no binding
binding result [11]: binds
binding result [1]: binds
